Measured values taken from US20240294593A1 (Genentech, published 2024).
Read-outs that look alike come from different tables or passages of the source. Values belong to the binder of their own block, whether it stands above or below them.

Tests used:
human PD-1-His [1] = biological target: T1, human PD-1-His (human, UniProt Q15116 25-167, limits assumed); assay: Octet (BLI) sensorgram; XENP29708 loaded on the biosensor, analyte Sample ID XENP15593 at 300, 30, 3 nM [Cont.]
T1 construct: Antigen of the Octet assays; not shown: His tag

human PD-1-His [2] = biological target: T1, human PD-1-His; assay: Octet (BLI); XENP29706 loaded on the biosensor, analyte Sample ID XENP15593 at 300, 30, 3 nM; KD (M) printed in the legend under the plot
human PD-1-His [3] = biological target: T1, human PD-1-His; assay: Octet (BLI) sensorgram; XENP29712 loaded on the biosensor, analyte Sample ID XENP15593 at 300, 30, 3 nM [Cont.]
human PD-1-His [4] = biological target: T1, human PD-1-His; assay: Octet
human PD-1-His [5] = biological target: T1, human PD-1-His; assay: Octet affinity screen; bivalent IgG1 format; reference mAb C[PD-1]_H1L1
human PD-1-His [6] = biological target: T1, human PD-1-His; assay: Octet (BLI) sensorgram; XENP29714 loaded on the biosensor, analyte Sample ID XENP15593 at 300, 30, 3 nM [Cont.]
human PD-1-His [7] = biological target: T1, human PD-1-His; assay: Octet (BLI) sensorgram; XENP29711 loaded on the biosensor, analyte Sample ID XENP15593 at 300, 30, 3 nM [Cont.]
human PD-1-His [8] = biological target: T1, human PD-1-His; assay: Octet (BLI) sensorgram; XENP29710 loaded on the biosensor, analyte Sample ID XENP15593 at 300, 30, 3 nM [Cont.]
human PD-1-His [9] = biological target: T1, human PD-1-His; assay: Octet (BLI) sensorgram; XENP29713 loaded on the biosensor, analyte Sample ID XENP15593 at 300, 30, 3 nM [Cont.]
human PD-1-His [10] = biological target: T1, human PD-1-His; assay: sensorgram, panel Human PD-1; Octet per legend paragraph 199, axes printed as Response (RU) against Time (s)
cynomolgus PD-1-His [11] = biological target: T2, cynomolgus PD-1-His (cynomolgus monkey); assay: sensorgram, panel Cyno PD-1; Octet per legend paragraph 199, axes printed as Response (RU) against Time
T2 chain: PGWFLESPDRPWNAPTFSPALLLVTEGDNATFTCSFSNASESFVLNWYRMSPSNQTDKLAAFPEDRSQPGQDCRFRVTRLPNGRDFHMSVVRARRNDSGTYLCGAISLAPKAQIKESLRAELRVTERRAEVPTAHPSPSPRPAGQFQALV

human PD-1-His [12] = biological target: T1, human PD-1-His; assay: sensorgram, panel Human PD-1; Octet per legend paragraph 199, axes printed as Response (RU) against Time (s); remark: listed apart in the source
cynomolgus PD-1-His [13] = biological target: T2, cynomolgus PD-1-His; assay: sensorgram, panel Cyno PD-1; Octet per legend paragraph 199, axes printed as Response (RU) against Time

T1 sequence (Q15116 25-167 limits assumed): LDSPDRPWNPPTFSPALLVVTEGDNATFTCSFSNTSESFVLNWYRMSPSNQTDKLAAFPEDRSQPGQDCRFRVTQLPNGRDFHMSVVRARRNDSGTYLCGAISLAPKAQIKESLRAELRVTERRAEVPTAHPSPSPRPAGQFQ

binding result (human PD-1-His [1]): no binding (tested: 300 nM)
B1: XENP29708 (W100Y) (antibody, V domains shown)
VH: EVQLVESGGGLVQPGGSLRLSCAASGFTFSSFGMHWVRQAPGKGLEWVSYISSGSSIIYYADSVKGRFTISRDNAKNSLYLQMNSLRAEDTAVYYCARGGRLVYSPDYWGQGTLVTVSS
VL: DIVMTQSPDSLAVSLGERATINCKSSQSLLNSGNQKNYLTWYQQKPGQPPKLLIYWASTRESGVPDRFTGSGSGTDFTLTISSLQAEDVAVYYCQNDYSYPFTFGSGTKLEIKR
notes: the panel label gives the substitution; also called mAb C[PD-1]_H1L1 W100Y (Kabat) variant; copies: 2 + 2

Kd (human PD-1-His [2]): 309 nM
B2: XENP29706 (W100F) (antibody, V domains shown)
VH: EVQLVESGGGLVQPGGSLRLSCAASGFTFSSFGMHWVRQAPGKGLEWVSYISSGSSIIYYADSVKGRFTISRDNAKNSLYLQMNSLRAEDTAVYYCARGGRLVFSPDYWGQGTLVTVSS
VL: DIVMTQSPDSLAVSLGERATINCKSSQSLLNSGNQKNYLTWYQQKPGQPPKLLIYWASTRESGVPDRFTGSGSGTDFTLTISSLQAEDVAVYYCQNDYSYPFTFGSGTKLEIKR
notes: the panel label gives the substitution; also called mAb C[PD-1]_H1L1 W100F (Kabat) variant; copies: 2 + 2

binding result (human PD-1-His [3]): no binding (tested: 300 nM)
B3: XENP29712 (W100S) (antibody, V domains shown)
VH: EVQLVESGGGLVQPGGSLRLSCAASGFTFSSFGMHWVRQAPGKGLEWVSYISSGSSIIYYADSVKGRFTISRDNAKNSLYLQMNSLRAEDTAVYYCARGGRLVSSPDYWGQGTLVTVSS
VL: DIVMTQSPDSLAVSLGERATINCKSSQSLLNSGNQKNYLTWYQQKPGQPPKLLIYWASTRESGVPDRFTGSGSGTDFTLTISSLQAEDVAVYYCQNDYSYPFTFGSGTKLEIKR
notes: the panel label gives the substitution; also called mAb C[PD-1]_H1L1 W100S (Kabat) variant; copies: 2 + 2

Kd (human PD-1-His [4]): 10.8 nM | koff (human PD-1-His [4]): 0.00165 s⁻¹ | kon (human PD-1-His [4]): 153000 M⁻¹ s⁻¹ | fold improved affinity over WT (human PD-1-His [5]): > 2 fold
B4: mab_C[PD-1]_H1_L1.3 (bivalent IgG1) (antibody, V domains shown)
VH: EVQLVESGGGLVQPGGSLRLSCAASGFTFSSFGMHWVRQAPGKGLEWVSYISSGSSIIYYADSVKGRFTISRDNAKNSLYLQMNSLRAEDTAVYYCARGGRLVWSPDYWGQGTLVTVSS
VL: DIVMTQSPDSLAVSLGERATINCKSSQSLLSSGNQKNYLTWYQQKPGQPPKLLIYWASTRESGVPDRFTGSGSGTDFTLTISSLQAEDVAVYYCQNDYSYPFTFGSGTKLEIKR
notes: Bivalent IgG1 format with E233P/L234V/L235A/G236_/S267K; copies: 2 + 2

binding result (human PD-1-His [6]): no binding (tested: 300 nM)
B5: XENP29714 (W100R) (antibody, V domains shown)
VH: EVQLVESGGGLVQPGGSLRLSCAASGFTFSSFGMHWVRQAPGKGLEWVSYISSGSSIIYYADSVKGRFTISRDNAKNSLYLQMNSLRAEDTAVYYCARGGRLVRSPDYWGQGTLVTVSS
VL: DIVMTQSPDSLAVSLGERATINCKSSQSLLNSGNQKNYLTWYQQKPGQPPKLLIYWASTRESGVPDRFTGSGSGTDFTLTISSLQAEDVAVYYCQNDYSYPFTFGSGTKLEIKR
notes: the panel label gives the substitution; also called mAb C[PD-1]_H1L1 W100R (Kabat) variant; copies: 2 + 2

binding result (human PD-1-His [7]): no binding (tested: 300 nM)
B6: XENP29711 (W100Q) (antibody, V domains shown)
VH: EVQLVESGGGLVQPGGSLRLSCAASGFTFSSFGMHWVRQAPGKGLEWVSYISSGSSIIYYADSVKGRFTISRDNAKNSLYLQMNSLRAEDTAVYYCARGGRLVQSPDYWGQGTLVTVSS
VL: DIVMTQSPDSLAVSLGERATINCKSSQSLLNSGNQKNYLTWYQQKPGQPPKLLIYWASTRESGVPDRFTGSGSGTDFTLTISSLQAEDVAVYYCQNDYSYPFTFGSGTKLEIKR
notes: the panel label gives the substitution; also called mAb C[PD-1]_H1L1 W100Q (Kabat) variant; copies: 2 + 2

binding result (human PD-1-His [8]): no binding (tested: 300 nM)
B7: XENP29710 (W100H) (antibody, V domains shown)
VH: EVQLVESGGGLVQPGGSLRLSCAASGFTFSSFGMHWVRQAPGKGLEWVSYISSGSSIIYYADSVKGRFTISRDNAKNSLYLQMNSLRAEDTAVYYCARGGRLVHSPDYWGQGTLVTVSS
VL: DIVMTQSPDSLAVSLGERATINCKSSQSLLNSGNQKNYLTWYQQKPGQPPKLLIYWASTRESGVPDRFTGSGSGTDFTLTISSLQAEDVAVYYCQNDYSYPFTFGSGTKLEIKR
notes: the panel label gives the substitution; also called mAb C[PD-1]_H1L1 W100H (Kabat) variant; copies: 2 + 2

binding result (human PD-1-His [9]): no binding (tested: 300 nM)
B8: XENP29713 (W100E) (antibody, V domains shown)
VH: EVQLVESGGGLVQPGGSLRLSCAASGFTFSSFGMHWVRQAPGKGLEWVSYISSGSSIIYYADSVKGRFTISRDNAKNSLYLQMNSLRAEDTAVYYCARGGRLVESPDYWGQGTLVTVSS
VL: DIVMTQSPDSLAVSLGERATINCKSSQSLLNSGNQKNYLTWYQQKPGQPPKLLIYWASTRESGVPDRFTGSGSGTDFTLTISSLQAEDVAVYYCQNDYSYPFTFGSGTKLEIKR
notes: the panel label gives the substitution; also called mAb C[PD-1]_H1L1 W100E (Kabat) variant; copies: 2 + 2

Kd (human PD-1-His [10]): 4.3 nM | Kd (cynomolgus PD-1-His [11]): 4.5 nM
B9: XENP31986 (mAb C H1_L1.1 x IL-15[D30N/E64Q/N65D/N71Q/N79Q/N112Q] w/(G4A) Linker) (Fc fusion)
chain: ITCPPPMSVEHADIWVKSYSLYSRERYICNSGFKRKAGTSSLTECVLNKATNVAHWTTPSLKCIRGGGGAGGGGAGGGGAGGGGAGGGGANWVNVISDLKKIEDLIQSMHIDATLYTESNVHPSCKVTAMKCFLLELQVISLESGDASIHDTVQDLIILAQNSLSSNGQVTESGCKECEELEEKNIKEFLQSFVHIVQMFIQTSEPKSSDKTHTCPPCPAPPVAGPSVFLFPPKPKDTLMISRTPEVTCVVVDVKHEDPEVKFNWYVDGVEVHNAKTKPREEEYNSTYRVVSVLTVLHQDWLNGKEYKCKVSNKALPAPIEKTISKAKGQPREPQVYTLPPSREEMTKNQVSLTCDVSGFYPSDIAVEWESDGQPENNYKTTPPVLDSDGSFFLYSKLTVDKSRWEQGDVFSCSVLHEALHSHYTQKSLSLSPGK
heavy: EVQLVESGGGLVQPGGSLRLSCAASGFTFSSFGMHWVRQAPGKGLEWVSYISSGSSIIYYADSVKGRFTISRDNAKNSLYLQMNSLRAEDTAVYYCARGGRLVWSPDYWGQGTLVTVSSASTKGPSVFPLAPSSKSTSGGTAALGCLVKDYFPEPVTVSWNSGALTSGVHTFPAVLQSSGLYSLSSVVTVPSSSLGTQTYICNVNHKPSNTKVDKKVEPKSCDKTHTCPPCPAPPVAGPSVFLFPPKPKDTLMISRTPEVTCVVVDVKHEDPEVKFNWYVDGVEVHNAKTKPREEQYNSTYRVVSVLTVLHQDWLNGKEYKCKVSNKALPAPIEKTISKAKGQPREPQVYTLPPSREQMTKNQVKLTCLVKGFYPSDIAVEWESNGQPENNYKTTPPVLDSDGSFFLYSKLTVDKSRWQQGNVFSCSVLHEALHSHYTQKSLSLSPGK
light: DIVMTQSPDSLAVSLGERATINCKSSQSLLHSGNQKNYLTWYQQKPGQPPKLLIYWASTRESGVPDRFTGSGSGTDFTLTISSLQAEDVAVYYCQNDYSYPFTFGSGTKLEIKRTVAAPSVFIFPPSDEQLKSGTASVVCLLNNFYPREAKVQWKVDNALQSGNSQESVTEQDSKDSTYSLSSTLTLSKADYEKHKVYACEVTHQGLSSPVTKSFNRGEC
notes: scIL-15/Rα x Fab format

Kd (human PD-1-His [12]): 2.8 nM | Kd (cynomolgus PD-1-His [13]): 2.7 nM
B10: XENP32435 (PD-1-targeted IL-15/Rα-Fc having Trp engineered/affinity repaired mAb C[PD1]_H1.176_L1.140 and IL-15[D30N/E64Q/N65D/N71Q/N79Q/N112Q]) (Fc fusion)
chain: ITCPPPMSVEHADIWVKSYSLYSRERYICNSGFKRKAGTSSLTECVLNKATNVAHWTTPSLKCIRGGGGAGGGGAGGGGAGGGGAGGGGANWVNVISDLKKIEDLIQSMHIDATLYTESNVHPSCKVTAMKCFLLELQVISLESGDASIHDTVQDLIILAQNSLSSNGQVTESGCKECEELEEKNIKEFLQSFVHIVQMFIQTSEPKSSDKTHTCPPCPAPPVAGPSVFLFPPKPKDTLMISRTPEVTCVVVDVKHEDPEVKFNWYVDGVEVHNAKTKPREEEYNSTYRVVSVLTVLHQDWLNGKEYKCKVSNKALPAPIEKTISKAKGQPREPQVYTLPPSREEMTKNQVSLTCDVSGFYPSDIAVEWESDGQPENNYKTTPPVLDSDGSFFLYSKLTVDKSRWEQGDVFSCSVLHEALHSHYTQKSLSLSPGK
heavy: EVQLVESGGGLVQPGGSLRLSCAASGFTFSSLGMHWVRQAPGKGLEWVSYISSGSSIIYYADSVKGRFTISRDNAKNSLYLQMNSLRAEDTAVYYCARGGRLVFSPDYWGQGTLVTVSSASTKGPSVFPLAPSSKSTSGGTAALGCLVKDYFPEPVTVSWNSGALTSGVHTFPAVLQSSGLYSLSSVVTVPSSSLGTQTYICNVNHKPSNTKVDKKVEPKSCDKTHTCPPCPAPPVAGPSVFLFPPKPKDTLMISRTPEVTCVVVDVKHEDPEVKFNWYVDGVEVHNAKTKPREEQYNSTYRVVSVLTVLHQDWLNGKEYKCKVSNKALPAPIEKTISKAKGQPREPQVYTLPPSREQMTKNQVKLTCLVKGFYPSDIAVEWESNGQPENNYKTTPPVLDSDGSFFLYSKLTVDKSRWQQGNVFSCSVLHEALHSHYTQKSLSLSPGK
light: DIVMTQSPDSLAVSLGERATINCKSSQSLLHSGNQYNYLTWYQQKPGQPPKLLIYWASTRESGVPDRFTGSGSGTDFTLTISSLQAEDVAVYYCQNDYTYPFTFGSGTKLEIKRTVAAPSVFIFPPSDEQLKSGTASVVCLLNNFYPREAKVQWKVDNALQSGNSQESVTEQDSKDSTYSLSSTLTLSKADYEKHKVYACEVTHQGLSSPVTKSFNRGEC
